Laboratory results: the supplement of paper PMC9170038

Tested on: MS2 coat protein
Assay: apparent KD of MS2 coat protein; designed switch direction (-1 OFF switch, 1 ON switch): -1; higher = weaker reporter binding
How it was run: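 Designed RNA switches with common flanks were made on Illumina chips by stalled E. coli RNA polymerase. Titration with SNAP-549-labelled MS2 coat protein doubled from 0.7 or 1.5 nM up to 3 µM. Apparent KD is each design's median over clusters after curve-fitting normalised fluorescence.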

[1] = input ligand: microRNA oligo, concentration not stated
[2] = Eterna round: R95, input ligand: FMN 200 uM
[3] = Eterna round: R95, input ligand: microRNA oligo, concentration not stated
[4] = Eterna round: R95, input ligand: none

Sequence | apparent KD of MS2 coat protein (input ligand: FMN 200 uM) | apparent KD of MS2 coat protein (input ligand: none) | apparent KD of MS2 coat protein [1] | apparent KD of MS2 coat protein [2] | apparent KD of MS2 coat protein [3] | apparent KD of MS2 coat protein [4]
GGUCAUCAAGUCAGGAUAUCGUCAAAUCAAUCAGGCGAGAAGGGACAUGAGGAUCACCCAUGUCGACUCAUCAG [Ex4 #5] (Eterna round: R97, puzzle: Brourd's mod of Exclusion 4) | 123 nM | 34.3 nM |  |  |  | 
AUAUUAAUAGUAAGGAUAUGCGUAUAUAUAAUUAUGCAGAAGGUACAUGAGGAUCACCCAUGUAUUAAUGUAUA [LRO-BmodExc4-01-Oppy's Opus] (Eterna round: R97, puzzle: Brourd's mod of Exclusion 4) | 16.5 nM | 15.6 nM |  |  |  | 
UAUGGUAAAGUCAGGAUAUACGUGCAGAUUUCUAGGUAGAAGGGACAUGAGGAUCACCCAUGUAUGGUAGUGUU [Ex4 #45] (Eterna round: R97, puzzle: Brourd's mod of Exclusion 4) | 75.5 nM | 81.2 nM |  |  |  | 
CUGUACUGAGGAUAUACAUGAGGAUCACCCAUGUGUCCUGGCUAGGAAACUAGCAAAGGUAGAAGGCAGUACAG [Mat - Exclusion 3 - Eli Mod - D54] (Eterna round: R97, puzzle: Exclusion 3) | 150 nM | 18.8 nM |  |  |  | 
UCUCUUGGGCAAGGAUAUCCUGCGCGGUUCCGGUUCGUGUCUGUCACAUGAGGAUCACCCAUGUGGGAGAAGGUGCCUGCGGUU [Design 76] (Eterna round: R96, puzzle: Exclusion NG 2) |  |  | 13.1 nM |  |  | 
UUUUGUCGUGACAUGGGUGACAUGAGGAUCACCCAUGUUACAAGCUUGUUGCUCGUCUUAUAAUUAACCCAUGUCAC [LRO Sensor-off var1-17 mod of Stov1-13-A1 by Brourd] (Eterna round: R97, puzzle: Sensor, turn-off variant 1) | 17.6 nM | 16.1 nM |  |  |  | 
CCUCUUGGGCAAGGAUAUCCUGCGCGGUUCCGGCUCGUGUCUGUCACAUGAGGAUCACCCAUGUGGGAGAAGGUGCCUGCGGUC [Design 79] (Eterna round: R96, puzzle: Exclusion NG 2) | 16.3 nM | 16.5 nM | 11.8 nM |  |  | 
CACCGGGUAGGAUAUACUUGAGGAUCACCCAAGUGGGAACCUACUCGGUGGUCCUUAAGUAGAAGGACCAACGG [Ex 2] (Eterna round: R97, puzzle: Exclusion 3) | 11.5 nM | 11.9 nM |  |  |  | 
AGAUUGUUAGGAUAUUCGGACCGCUACGAAGCGUGGUCCAGGGAGAAGGAACAUGAGGAUCACCCAUGUGACCA [Eternabot (L2) Solution 33] (Eterna round: R97, puzzle: Exclusion 4) | 69.7 nM | 26 nM |  |  |  | 
AAAAAACAUGAGGAUCACCCAUGUCAGGAUAUCCGCGAAGGAAAGAAAAAAAAAAAAGGGAGAAGGGACAAAAA [April's Ex-date #4] (puzzle: Exclusion 1) |  |  |  | 49.5 nM | 52.8 nM | 28.5 nM
AAGACACAUGAGGAUCACCCAUGUGAGGAUAUUCGAUGCUGAGCGUAAGCUUAGUAUCGGAGAAGGCACAUAGG [Salishxclusion 8 - Jieux - Exclusion 1] (Eterna round: R97, puzzle: Exclusion 1) | 203 nM | 251 nM |  |  |  | 
CUGAGGUAGCGGUCCUAUGACAUGAGGAUCACCCAUGUACCUUGCUUUGAGCAUUUUGCUCGUCUUAUGAUUCUCGG [Mat - Sensor v3 - turn-off var 1 - JL Mod - D39] (puzzle: Sensor v3, turn-off variant 1) |  |  |  | 371 nM | 474 nM | 427 nM
AGUCAGGCGGUAGGAUAUCCAAAUCGAGUGACCCUCUCAUAACAUGAGGAUCACCCAUGUCGGUGGGAGAAGGGCCGUAAGGCG [Mat - Exclusion NG 2 - Mod of JL - D63] (Eterna round: R96, puzzle: Exclusion NG 2) | 48.2 nM | 29.5 nM | 25.8 nM |  |  | 
GCUAGAGCAGGAUAUUUAGAUCCUCACAUGAGGAUCACCCAUGUGGCCGAAAGGCUAAGGAGAGAAGGGCUCUAGC [Omei Ex5 E23] (Eterna round: R97, puzzle: Exclusion 5) | 1580 nM | 933 nM |  |  |  | 
UUAUCCGCUGAGGAUAUUAUCAGUGAGAGCUGAUGAGAAGGCGGUACAUGAGGAUCACCCAUGUCUAUGGGCAG [Ex-6 Malc#24] (puzzle: Exclusion 6) |  |  |  | 472 nM | 337 nM | 435 nM
UGAUCUUUUGUUAGGAUAUGCUGUUUUUUUUUUCAGCAGAAGGGACAUGAGGAUCACCCAUGUUUUGUCAUAAA [Magic-06] (puzzle: Brourd's mod of Exclusion 4) |  |  |  |  | 14.4 nM | 
UGUGUGAGACAGGAUAUGCCGGAUGAAUUGCAGGUAGAAGGGUCUACAUGAGGAUCACCCAUGUGGCCGGUUGG [Ex6 #76] (Eterna round: R97, puzzle: Exclusion 6) | 19.8 nM | 13.6 nM |  |  |  | 

Sequence | apparent KD of MS2 coat protein (input ligand: FMN 200 uM) | apparent KD of MS2 coat protein (input ligand: none) | apparent KD of MS2 coat protein [1] | apparent KD of MS2 coat protein [2] | apparent KD of MS2 coat protein [3] | apparent KD of MS2 coat protein [4]
UCCUUACAUGAGGAUCACCCAUGUCAGGAUAUCUCCACACUGCGCUUGCGCAGUGUAUAGAGAAGGGACGGGCU [JL ViennaUCT Aner mod 7] (puzzle: Exclusion 1) |  |  |  |  | 28.5 nM | 
UGAUCUAGCGGAGGAUAUACAUGAGGAUCACCCAUGUAAAUCGCUUUACCGUAGUGAAGCAUCAUGUAGAAGGCCGCUAGAUCU [MOD3 ENG2 3.62 by JL] (Eterna round: R96, puzzle: Exclusion NG 2) | 59.3 nM | 592 nM | 480 nM |  |  | 
UGUUGUCGCGUAGGAUAUGGCCAACAGGCCCUAGGAUAUGGGAAACCAGAAGGAGCGCCAACAGGCGAGAAGGACGGGACAACU [pwkr exNG2 2xF7 2xFMN.19] (Eterna round: R96, puzzle: Exclusion NG 2) | 734 nM | 268 nM | 451 nM |  |  | 
AGUACUAACACGGGUGUGUUAGUACAAUAAGCUUGUGAAACAUGAGGAUCACCCAUGUCCUCAUAAGCUCGUCUUAU [salish99_TOv2_r3_075] (puzzle: Sensor v3, turn-off variant 2) |  |  |  | 15.4 nM | 926 nM | 14.4 nM
CUUUUGUGAGGAUAUUAGUAGUAAAUAAAUAAAAUUAUUACUGAGAAGGCACAUGAGGAUCACCCAUGUUCCUU [Salish 062 v20] (Eterna round: R97, puzzle: Exclusion 4) | 63.6 nM | 17 nM |  |  |  | 
AAAGUGUCAGGAUAUUGUUAGUUUAGUUGUUUGUAUUAGUUCGAGAAGGGACAUGAGGAUCACCCAUGUUGUAA [Ex4 #64] (Eterna round: R97, puzzle: Exclusion 4) | 24.5 nM | 32.2 nM |  |  |  | 
ACUGGUCAUGAGGAUAUGCGCCAGAACGCCGGCGUAGAAGGCGUGACAUGAGGAUCACCCAUGUCAGUUCGCGA [eternacac ex6r4 sub30] (Eterna round: R97, puzzle: Exclusion 6) | 39.1 nM | 39.6 nM |  |  |  | 
GAUAAGGUAGGAUAUACGAAUAAAUAGGGUAGAAUAAUAACACAUGAGGAUCACCCAUGUAGAAGGACCAAUAG [Mat - Exclusion 2 - Mod of my Tesla design - D26] (puzzle: Exclusion 2) |  |  |  | 38.9 nM | 25.6 nM | 26.3 nM
AGAUCGUCAGGAUAUACAUGAGGAUCACCCAUGUAUAGUCUAAAUUUGACUAUAAAGUGUAGAAGGGACGAUCG [Exclusion 3 (MOD6 of #1 Marzena11)] (Eterna round: R97, puzzle: Exclusion 3) | 51.5 nM | 18.1 nM |  |  |  | 
UCCUCACAUGAGGAUCACCCAUGUCAGGAUAUACGAACGGUAAGUGACAAUCGAUUACGUAGAAGGGACUGCGG [Eternabot (L1) Solution 78] (Eterna round: R97, puzzle: Exclusion 1) | 110 nM | 121 nM |  |  |  | 
GAUGCCAGAGGAUAUGCAUCGGGUUCCUGGUUAAGGCUGCCACAUGAGGAUCACCCAUGUAGAAGGCUGCCGUC [EX2 B.5] (Eterna round: R97, puzzle: Exclusion 2) | 17.4 nM | 9.94 nM |  |  |  | 
CGUGUACGAGGAUAUAGAUUGGAUGACAUGAGGAUCACCCAUGUGAUCAAUCUAUUUGGUUUAGAAGGUGUACAUG [JR_Ex5_Sub050] (Eterna round: R97, puzzle: Exclusion 5) | 14.1 nM | 14.8 nM |  |  |  | 
UACUAUAAGGAGGAUAUCGUAUCGGAGACGAUACGAGAAGGCUUAACAUGAGGAUCACCCAUGUUCUUCAAUAU [Mat - Exclusion 6 - Eli Mod - D91] (puzzle: Exclusion 6) |  |  |  |  | 14.8 nM | 
GGGCCCGGUGUGAGGAUAUGUUUGGGUAAACCCGGGCAGAAGGCACAUGAGGAUCACCCAUGUAAGCCGGGCCC [-37.5, -35.4 kcal, A 23%, 5bbis-0] (Eterna round: R97, puzzle: Brourd's mod of Exclusion 4) | 14.7 nM | 19.2 nM |  |  |  | 
GAAAAUGUGGAGGAUAUCGACUUCGAAAGAAGUCGAGAAGGCCACACAUGAGGAUCACCCAUGUGUUCCUUCAA [Omei Ex6 H2] (Eterna round: R97, puzzle: Exclusion 6) | 569 nM | 52.2 nM |  |  |  | 
GUAAUUAAUGUAGGAUAUGCAAGGCGAACCUAAGCAGAAGGACAUGUGGAUCACCCAUGUAAACAUGAGGAUCACCCAUGUGCU [salish99_ExNG1_r4_006] (Eterna round: R96, puzzle: Exclusion NG 1) | 1320 nM | 4270 nM | 1340 nM |  |  | 
